The target in this series is T1, lipoamide-containing aminomethyl transferase (GcvH, H-protein) of C. jeikeium.
T1 chain: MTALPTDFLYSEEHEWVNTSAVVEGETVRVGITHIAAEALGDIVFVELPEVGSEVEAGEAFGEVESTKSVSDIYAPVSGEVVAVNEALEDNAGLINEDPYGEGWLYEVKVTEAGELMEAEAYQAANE

B1: lipoyl transferase (LipB protein) of C. jeikeium (protein)
chain: MGFQQGSIRKANMGTTGTNDGATTPPANTSTPAVDIDVRDLGTVDYEDTWHLQANLAAQRAEEKIPDTILLLQHPPTYTAGKRTQDSDRPTNGLPVVDVDRGGRITWHGPGQLVAYPIIKLADPVDVVDYVRRLEQALIQTCEDLGLHGTGRVEGRSGVWLPAGVINGELKPARKIAAIGIRVTRGVTMHGVALNCDNTMEYYDHIVPCGLADAGVTTLTEELGRDVSVSDAYSSLAHNLVDALNGDLPVHS
As for B1, the “growth of serine-auxotrophic C. glutamicum OM264C transformants (pOM620AF, pOM621AR) on minimal glycine plates without serine and without lipoic acid” value was “both transformants grew, while OM264C(pCLIK) did not”.

(Values after patent US20100003727.)
